Test results: the supplement of paper PMC10567573
± gives the standard deviation.

Assay: protein stability index of a GFP-peptide fusion (GPS, HEK-293T) (PSI 1-6); higher = more stable
[1] = treatment: DMSO, c terminus: a fixed tail appended
[2] = treatment: MLN4924 1 uM, 8 h, c terminus: a fixed tail appended
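Note: 24-mer peptide tiles fused after GFP, lentivirally expressed, FACS-sorted into six equal bins by GFP/DsRed ratio, decoded by Illumina sequencing, PSI is the read-weighted mean bin number.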

Row | Sequence | protein stability index [1] | protein stability index [2] | protein stability index (treatment: DMSO, c terminus: native) | protein stability index (treatment: MLN4924 1 uM, 8 h, c terminus: native)
1 | YQETMVESTFMYLTLDLPTAPLYK [USP39] | 2.36 ± 0.52 | 2.28 ± 0.21 |  | 
2 | IDNTTVIYNSNIFTDPFFIVETLC [KCNA1] | 2.72 ± 0.67 | 2.53 ± 0.37 |  | 
3 | IQRPANAIKEMIENCLDAKSTSIQ [MLH1] | 4.16 ± 0.16 |  |  | 
4 | ATPGEYSVNICGMNEHPVCSRTWT [SPAG8] | 2.44 ± 0.28 | 2.57 ± 0.39 |  | 
5 | HGVRAKVQPQARKKEMEMRQLQRG [CPN1] | 4.38 ± 0.38 | 4.5 ± 0.25 |  | 
6 | KTKAPAPDEGSDLFYDDYYEDGEV [CDC34] | 5.35 ± 0.31 | 5.38 ± 0.29 |  | 
7 | HYGNIMYDRRVIRGNTYALQTGPL [RSPH3] | 2.33 ± 0.1 | 2.13 ± 0.32 |  | 
8 | WSIPWKWLFGATAVALGGVALSVV [FKBP8] | 4.11 ± 0.43 | 3.98 ± 0.14 |  | 
9 | GGHTREARIQTLEPDNWMKEVMLF [RSAD1] | 2.51 ± 0.25 | 2.34 ± 0.34 |  | 
10 | EKALQVLVDQSKKANSPLKGHERT [VPS39] | 4.06 ± 0.21 | 4.48 ± 0.26 |  | 
11 | TGEDVKVILKNSQGEEVAQRSTVF [LMNB1] | 4.7 ± 0.15 | 4.64 ± 0.09 |  | 
12 | RLNGTAKGERRREPGGYDSSSTLM [DVL3] | 3.62 ± 0.13 | 4.01 ± 0.31 |  | 
13 | GGLGTPLRLPMLNTEVVQVAAGRT [NEK8] | 4.11 ± 0.35 | 4.06 ± 0.31 |  | 
14 | FIYTAKLSLNMDNLQDTLEAASFL [KLHL13] | 2.65 ± 0.54 | 2.96 ± 0.48 |  | 
15 | DPEVLEAVGDRQDGLREQLQAPVP [PBXIP1] | 5.43 ± 0.27 | 5.4 ± 0.24 |  | 
16 | LLPPGEPPLLGTFPRDHTSLALVQ [ANKRD40] | 3.48 ± 0.096 | 3.39 ± 0.31 |  | 
17 | MWLLVSVILISRISSVGGEAMFCD [CFHR2] | 3.35 ± 0.25 | 3.08 ± 0.52 |  | 
18 | LENSKYCRFNQDPEAVDEDRSTEP [ATE1] | 5.5 ± 0.24 | 5.29 ± 0.45 |  | 
19 | KCAEVIIPLLSSVNVSDRGGRTAL [ANKRD44] | 2.38 ± 0.37 | 2.37 ± 0.16 |  | 
20 | RKSLLVVHQRTHTGEKPHTCSECG [ZNF649] | 3.98 ± 0.21 | 3.95 ± 0.42 |  | 
21 | WVCLAYFTSGFNAAALDYEADGST [SPACA3] | 2.9 ± 0.46 | 2.91 ± 0.25 |  | 
22 | NMEKYNFLGISIVGQSNERGDGGI [DVL3] | 3.18 ± 0.28 | 3.16 ± 0.82 |  | 
23 | LQLLLGCKARMERDGYGMTPLLAA [FEM1A] | 2.38 ± 0.5 | 2.24 ± 0.29 |  | 

Row | Sequence | protein stability index [1] | protein stability index [2] | protein stability index (treatment: DMSO, c terminus: native) | protein stability index (treatment: MLN4924 1 uM, 8 h, c terminus: native)
24 | IVKQMKIIHEAGYSEEECKQYKAV [GNAI1] | 3.13 ± 0.22 | 3.77 ± 0.23 |  | 
25 | RLPFLSSSNLSLDVLRGNDETIGF [POMP] | 3.02 ± 0.42 | 3 ± 0.27 |  | 
26 | PEGKRVPKRLRCWEEEEDHEKERP [FANCE] | 5.21 ± 0.25 | 5.26 ± 0.27 |  | 
27 | YLNSFLHQRIPQSVRILGSLVAIL [SLC29A1] | 2.15 ± 0.25 | 2.23 ± 0.21 |  | 
28 | DPLSTNYSLAPNTPINQNVSLHQA [NFE2L1] | 4.25 ± 0.45 | 4.46 ± 0.16 |  | 
29 | AKPEALSSPKFREEAAFPGRRVNA [ELOA2] | 4.48 ± 0.25 | 4.59 ± 0.17 |  | 
30 | IRPVAGYLSPRDFLSGLAFRVFHC [TPH1] | 2.1 ± 0.13 | 2.12 ± 0.1 |  | 
31 | LQRDFLKQRPTKLKSLIRLVKHWY [OAS1] | 3.3 ± 0.41 | 3.15 ± 0.23 |  | 
32 | DQTTSEETVGGAILDQTTSEDAVG [HDAC6] | 5.54 ± 0.2 | 5.54 ± 0.26 |  | 
33 | YFAIKQEVVTPDNMCMGRTSRGKL [ETS1] | 3.5 ± 0.23 | 3.49 ± 0.22 |  | 
34 | REKTNICYLSFPDSNSGCLGDTQF [DENND6A] | 2.88 ± 0.063 | 2.9 ± 0.25 |  | 
35 | RLVHTTAIEHFQPNADLLFSDPSQ [FCHO1] | 3.78 ± 0.15 | 3.87 ± 0.24 |  | 
36 | RSLSPSLSSVDMRMTSSPSSIPRR [RAD54B] | 4.66 ± 0.15 | 4.69 ± 0.18 |  | 
37 | SPKRGTAPGDLSATEPATCFPSTQ [FBF1] | 4.87 ± 0.18 | 4.92 ± 0.24 |  | 
38 | PEMYILKGGYKEFFPQHPNFCEPQ [CDC25B] | 2.6 ± 0.46 | 2.84 ± 0.36 |  | 
39 | DQDTLAPLPHPGAAPWPMAFPYQY [DVL3] | 3.15 ± 0.29 | 3.12 ± 0.25 |  | 
40 | ILKNLSQVAMRCRCSSMHFLVAEW [SAT1] | 2.4 ± 0.2 | 2.65 ± 0.31 |  | 
41 | VGSLSWLRKQLQPTHCKYEGPRKA | 2.87 ± 0.24 | 2.9 ± 0.21 |  | 
42 | RFHRARWGLEEEDFQPREEAMLYH [P3H4] | 2.93 ± 0.11 | 2.9 ± 0.13 |  | 
43 | CLECGKSFCHGSSLKRHLKTHTGE [ZNF449] | 4.78 ± 0.16 | 5.273 ± 0.015 |  | 
44 | KSRRSRSESETSTMAAKKNRQSSD [C18orf25] | 5.47 ± 0.15 | 5.53 ± 0.25 |  | 
45 | QRSYFLRIFDIKDGKLLWEQELYN [WASL] | 2.21 ± 0.48 | 2.08 ± 0.4 |  | 
46 | ARQEGLTFFGTELAPVRQQELASL [PBXIP1] | 3.56 ± 0.22 | 3.69 ± 0.48 |  | 

Row | Sequence | protein stability index [1] | protein stability index [2] | protein stability index (treatment: DMSO, c terminus: native) | protein stability index (treatment: MLN4924 1 uM, 8 h, c terminus: native)
47 | PGSGSGPGPGSGPGSGPGHGSGSH [SPAG8] | 5 ± 0.17 | 4.93 ± 0.18 |  | 
48 | SDLKDDDAVPPGMESLISAPLVKT [CDC25B] | 5.21 ± 0.28 | 5.17 ± 0.43 |  | 
49 | TPDIKSHYAFRIFDFDDDGTLNRE [CIB1] | 3.55 ± 0.15 | 3.44 ± 0.21 |  | 
50 | LLSRINKDWLEGTVRGATGIFPLS [NCF4] | 2.17 ± 0.47 | 2.51 ± 0.74 |  | 
51 | NDKMAEYTNSAGVPSLNAALMHTL [GOSR1] | 3.44 ± 0.32 | 3.42 ± 0.23 |  | 
52 | SGFVGSGGWFCEGSFNGSEKETMQ [KRT36] | 3.87 ± 0.36 | 3.65 ± 0.19 |  | 
53 | ETAGQKPLSVHRPPTSGCLGPVPR [TSPAN10] | 4.25 ± 0.46 | 4.22 ± 0.19 |  | 
54 | AEALFDFTGNSKLELNFKAGDVIF [NCF4] | 2.05 ± 0.29 | 2.23 ± 0.27 |  | 
55 | GPALAGEPAGSLRELGVWRSLLRL [C2CD2L] | 2.66 ± 0.23 | 2.56 ± 0.03 |  | 
56 | EDHGLVTCSADHLIILWKNGERES [WDR41] | 3.27 ± 0.28 | 2.74 ± 0.21 |  | 
57 | RGLRGPNLTSPASITFTTGLEAPR [TNXB] | 3.84 ± 0.2 | 3.92 ± 0.47 |  | 
58 | KERLKPAHIHLQQLTCFSITCSST [KRT34] | 2.1 ± 0.34 | 2.49 ± 0.22 |  | 
59 | GAARSFQEVTEPAVVAVDRQAIFP [PXN] | 4.1 ± 0.26 | 4.04 ± 0.59 |  | 
60 | MEEVISPRQVSYTPQHHEKQYAMQ [IQUB] | 4.38 ± 0.15 | 4.31 ± 0.29 |  | 
61 | IQLKSVADGQESTPPTPAPTSGIV [WASL] | 4.68 ± 0.21 | 4.84 ± 0.16 |  | 
62 | QHEESTEGEADHSGYAGELGFRAF [UFD1] | 4.81 ± 0.31 | 4.88 ± 0.31 |  | 
63 | TCSICRRNFSRRSSLLRHQKLHL [ZNF75A] |  |  | 3.65 ± 0.23 | 4.06 ± 0.43
64 | PLAMNYLDRFLSLEPVKKSRLQLL [CCND1] | 2.23 ± 0.12 | 2.27 ± 0.14 |  | 
65 | ALLKFREDEGFVREEEDRALPENE [KCNA4] | 5.31 ± 0.32 | 5.43 ± 0.19 |  | 
66 | VASRNLFPKDTLMNLHVYISEHEH [CLPTM1] | 2.35 ± 0.34 | 2.37 ± 0.51 |  | 
67 | MADQDPAGISPLQQMVASGTGAVV [SLC25A39] | 4.52 ± 0.22 | 4.42 ± 0.13 |  | 
68 | CRCKNSNTVYCKLESCPSRGQGKP [SPRY1] | 3.66 ± 0.59 | 3.77 ± 0.29 |  | 
69 | KKRLQELALALKKCKPSLPAEAEG [TMEM120A] | 3.62 ± 0.48 | 3.34 ± 0.36 |  | 

Row | Sequence | protein stability index [1] | protein stability index [2] | protein stability index (treatment: DMSO, c terminus: native) | protein stability index (treatment: MLN4924 1 uM, 8 h, c terminus: native)
70 | LHLPIMGVVMKVRIPTCHDKPGTT [DENND6A] | 2.24 ± 0.31 | 2.25 ± 0.19 |  | 
71 | SAGDADPENGEIKPASKPAGSSHT [ELOA2] | 5.42 ± 0.42 | 5.47 ± 0.44 |  | 
72 | NVAATGISQYEDDLPPPPADPVLD [APBB1IP] | 5.36 ± 0.18 | 5.45 ± 0.19 |  | 
73 | RSSVELELERCRQQAGLLVTGEKE [PPEF2] | 4.74 ± 0.57 | 4.86 ± 0.34 |  | 
74 | RLLRFSSQIHNNGQSDFRPKNGRH [LOXL2] | 3.2 ± 0.41 | 3.42 ± 0.81 |  | 
75 | EEAAMQKCLVTEAQTLLRLSGVQR [RSAD1] | 3.51 ± 0.15 | 3.52 ± 0.35 |  | 
76 | TRTGPSAWETKKILAVSFAPLIQP [PCMTD2] | 2.14 ± 0.29 | 2.31 ± 0.31 |  | 
77 | NTRNYEGQTPLAVSISISGSSRPC [ASB7] | 3.23 ± 0.2 | 3.5 ± 0.27 |  | 
78 | HTVPDFHLSSPAKNFFKKAAAALF [PLK2] | 2.74 ± 0.96 | 2.65 ± 0.73 |  | 
79 | RWGYVAMKFAQVFGCFFYVYYIFE [SOAT1] | 3.17 ± 0.22 | 3.18 ± 0.39 |  | 
80 | FTGVITQGRNSLWLSDWVTSYKVM [CPXM2] | 3.21 ± 0.45 | 2.94 ± 0.84 |  | 
81 | LLMLENFIDGKFLPCSSYIDSYDP [ALDH8A1] | 1.97 ± 0.65 | 2.05 ± 0.56 |  | 
82 | RVEEQAILDAMAEETRQKQLLADE [TRIM35] | 5.57 ± 0.26 | 5.38 ± 0.15 |  | 
83 | DVHELFLQMAVLVEKQADTLNVIE [STX11] | 2.2 ± 0.16 | 2.27 ± 0.27 |  | 
84 | EEEPTGAGLNKDKETEERTDGERV [SDE2] | 5.84 ± 0.13 | 5.61 ± 0.37 |  | 
85 | VSGDYYPIIYFNDYWNLQKDYYPI [CLPTM1] | 3.03 ± 0.64 | 3.1 ± 0.87 |  | 
86 | NDNSPSFATPEREMRISESAASGA [PCDHGC5] | 5.21 ± 0.17 | 5.22 ± 0.089 |  | 
87 | PQARMREENMERIGEEVRQLMEKL [BEX1] | 4.51 ± 0.33 | 4.52 ± 0.23 |  | 
88 | HGEADRSTLKKALPTLSHIQEAQS [YJU2B] | 4.81 ± 0.3 | 4.7 ± 0.21 |  | 
89 | LSETADPFFVLNSDVICDFPFQAM [GMPPB] | 2.44 ± 0.26 | 2.6 ± 0.35 |  | 
